Changes are numbered by the printed parent chain.
B1: B9C (antibody, V domains shown)
VH: EVQLRQSGPVLVKPGASVKMSCKASGYTFTGYYMNWVKQSHGKSLEWLAVINPYNGDTAYNRKFKGRATLTVDKSSSTAYMELNRLTSEDSAVYYCVRDDGYHVRYFDVWGTGTTVTVSS
VL: DIQMTQSPSSLSASLGERVSLTCRASQDISDSLCWLQQKPDGTIKRLIYSTSTLDSGVPKRFSGSRSGSDYSLTISSLESEDFADYYCLQYASSPPTFGGGTKLEIK
notes: Chimeric: mouse VH and VL fused to constant regions of human IgG1 heavy chain and kappa light chain; also called the chimeric version of mouse mAb B9
B2: B7C (antibody, V domains shown)
VH: EFQLQQSGPELVKPGASVKISCKASGYSFSDYNLNWVKQSNGKTLEWIGLINLDSAATVYNQKFKGKATLTIDQSSTTAYMQLNSLTSDDSAVYYCASYDYWGQGTTLTVSS
VL: DIQMTQSPSSLSASLGERVSLSCRASQDISHYLNWFQQKPDGTFKRLIYETSTLDFGVPKRFSGSRSGSDYSLTIGSLESEDFADYYCLQYATYPLTFGAGTKLELK
notes: Chimeric: mouse VH and VL fused to constant regions of human IgG1 heavy chain and kappa light chain; also called the chimeric version of mouse mAb B7
B3: B10C (antibody, V domains shown)
VH: EFQLQQSGPELVKPGASVKISCKASGYSFTDYNLNWVKESNGKSLEWIGLITLDYGTTIYNQKFKGKATLTVDQSSSIAYMQLNSLTSDDSAVYYCACYDYWGQGTTLTVSS
VL: B2 VL with S22T, H31N, E50A, G76S, T93S
notes: Chimeric: mouse VH and VL fused to constant regions of human IgG1 heavy chain and kappa light chain; also called the chimeric version of mouse mAb B10
B4: B1C (antibody, V domains shown)
VH: DVQLQESGPGLVKPSQSLSLTCTVTGYSITSDYAWNWIRQFPGNKLEWMGYIDYSGITSYNPSLKSRISITRDTSKNQFFLQLNSVTTEDTATYYCAREDHYDLAWFAYWGQGTLVTVSA
VL: DIQMTQTTSSLSASLGDRVTISCRASQDISNYLNWYQQKPDGTVKLLIYYTSRLHSGVPSRFSGSGSGTDYSLTISNLEPEDIATYYCHQYSNRPPTFGGGTKLEIK
notes: Chimeric: mouse VH and VL fused to constant regions of human IgG1 heavy chain and kappa light chain; also called the chimeric version of mouse mAb B1
B5: B3C (antibody, V domains shown)
VH: QVQLQQPGAELLKPGASVKMSCKASGYTFTSYDIHWLKQTPGQGLEWIGAIYPENGDSSYSQKFKDKATLTADKSSNTAYIHLSSLTSEDSAVYYCARGGYYDYVWFPYWGQGTLVTVSA
VL: DVVMTQTPLSLPVSLGDQASISCRSSQSILYSNGYTYLEWYLQKPGQSPKLLIYGVSNRFSGVPDRFSGSGSGTDFTLKISRVESEDMGVYYCFQGTHVPLTFGAGTKLELK
notes: Chimeric: mouse VH and VL fused to constant regions of human IgG1 heavy chain and kappa light chain; also called the chimeric version of mouse mAb B3; B3 (human IgG1 heavy chain and kappa light chain chimeric)
B6: B4C (antibody, V domains shown)
VH: B5 VH with D66G, Y102F
VL: B5 VL with L30V, S85A
notes: Chimeric: mouse VH and VL fused to constant regions of human IgG1 heavy chain and kappa light chain; also called the chimeric version of mouse mAb B4; B4 (human IgG1 heavy chain and kappa light chain chimeric)
B7: B11C (antibody, V domains shown)
VH: EVQLQQSGPVLVRPGASVKMSCKASGYTFTNYYMNWVKQSHGKSLEWIGVINPYNGDIAYSQKFKGKATLTVDKSSSTAYMELKSLTSEDSAVYYCARDDGYYVYYFDCWGQGTTLTVSS
VL: B1 VL with S30G, D31G, C34N, Y91N, S93N
notes: Chimeric: mouse VH and VL fused to constant regions of human IgG1 heavy chain and kappa light chain; also called the chimeric version of mouse mAb B11
B8: B15 (antibody, V domains shown)
VH: EVQLQQSGAELVRPGASVKLSCTASGFNIKDDYMFWVKQRPEQGLEWIGWIDPENGDTEYASKFQGKATITADTSSNTAYLQLSSLTSEDTAVYYCTLYAYWGQGTLVTVSA
VL: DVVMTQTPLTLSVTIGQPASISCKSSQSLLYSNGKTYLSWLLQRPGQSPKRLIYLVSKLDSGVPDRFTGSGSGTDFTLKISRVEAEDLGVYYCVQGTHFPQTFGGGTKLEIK
notes: Mouse mAb from hybridoma; also called mouse anti-LAG-3 mAb B15
B9: BG29 (human IgG4 heavy chain and kappa light chain chimeric) (antibody, V domains shown)
VH: QIQLQQSGPEVVKPGASVRISCKASGYTFSDYHINWVKQKPGQGLEWIGWIYPGRGDPEYNEKFKGKATLTVDRSASTAYMQLSSLTSEDTSVYFCEIYYGNYIDYWGQGTTLTVSS
VL: DIVMTQAAPSVPVTPGESVSISCRSSKSLLHSDGKTYLYWFLQRPGQSPQRLIYYMSNLASGVPDRFSGRGSGTDFTLRISRVEAEDVGVYYCMQSLEYPWTFGGGTKLEIK
notes: Chimeric: mouse VH and VL with human IgG4 heavy chain and kappa light chain constant regions; also called chimeric BG29

What follows are binders tested against T1, human LAG-3(ECD)-mFc (human, UniProt P18627 23-450) (assay: FACS blocking assay: mAb preincubated with LAG-3(ECD)-mFc (1 µg/mL), blocked ligand MHC class II on Daudi cells, PE anti-mouse Fc).
T1 construct: also called hLAG3-mFc; human LAG-3 extracellular domain (ECD) fused to mouse Fc; not shown: mouse Fc
T1 sequence: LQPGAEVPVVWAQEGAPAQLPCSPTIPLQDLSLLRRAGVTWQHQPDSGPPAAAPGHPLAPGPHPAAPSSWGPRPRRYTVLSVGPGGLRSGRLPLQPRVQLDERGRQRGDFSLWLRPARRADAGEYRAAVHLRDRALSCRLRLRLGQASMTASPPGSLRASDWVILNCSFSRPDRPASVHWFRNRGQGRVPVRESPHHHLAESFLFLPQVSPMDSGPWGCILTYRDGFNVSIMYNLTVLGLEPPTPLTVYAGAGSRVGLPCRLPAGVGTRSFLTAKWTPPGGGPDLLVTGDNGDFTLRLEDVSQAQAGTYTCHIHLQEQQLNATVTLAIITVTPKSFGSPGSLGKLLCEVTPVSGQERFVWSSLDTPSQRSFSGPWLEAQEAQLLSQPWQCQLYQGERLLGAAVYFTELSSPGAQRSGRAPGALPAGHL
Method: FIGS. 4A-4D show inhibition of human LAG-3 binding to MHC class II molecules by select anti-LAG-3 mAbs. An in vitro binding assay was performed using recombinant LAG-3(ECD)-mFc and Daudi cells which express human MHC class II molecules. […] The binding of LAG-3(ECD)-mFc to Daudi cells in the presence of anti-LAG-3 mAbs or a control mAb was analyzed by FACS.
Human Daudi cells were cultured in RPMI+10% FBS. Human LAG-3(ECD)-mFc protein (human LAG-3 ECD fused to mouse Fc) at 1 μg/ml final concentration was incubated with purified mouse, humanized, or chimeric anti-LAG-3 mAbs at various concentrations for 15 minutes at 4° C. The mixture was then added to 100,000 human Daudi cells in a 96-well round bottom plate, mixed and incubated for 15 minutes on ice. Cells were then centrifuged at 1,000 rpm for 5 minutes and washed with FACS buffer (PBS supplemented with 5% BSA) three times. The cells were then incubated with PE-conjugated goat anti-mouse Fc polyclonal antibodies on ice for 15 minutes, washed with FACS buffer three times and then resuspended in FACS buffer containing 0.1 μg/ml PI (propidine iodine) for live/dead cell gating. Cells were then run through the FACS Caliber instrument and the data were analyzed by the Flowjo software. Results of the inhibition of LAG-3 binding to Daudi cells by chimeric mAbs B1C, B3C, B4C, BSC, B9C, and B11C are shown in FIG. 4B.

Row | Binder | IC50 (read off the curve) | binding result
1 | B1 | ~0.06 µg/mL | –
2 | B2 | ~0.3 µg/mL | –
3 | B3 | ~0.3 µg/mL | –
4 | B4 | ~0.4 µg/mL | –
5 | B5 | ~0.4 µg/mL | –
6 | B6 | ~0.4 µg/mL | –
7 | B7 | ~0.1 µg/mL | –
8 | B8 | – | binds
9 | B9 | ~1 nM | –

These binders were tested against T2, B5/IgG4 (assay: ELISA peptide competition: peptide preincubated with B5/IgG4, competitor hLAG3-mFc; peptide at 600-fold hLAG3-mFc; capture on anti-human IgG, anti-mouse IgG-HRP).
T2 construct: Chimeric: mouse VH and VL with human IgG4 heavy chain and kappa light chain constant regions; also called B5 (human IgG4 heavy chain and kappa light chain chimeric)
Method: (§1) FIGS. 5A-5D show the effect of competition peptides on LAG-3 binding to anti-LAG-3 mAbs. […] B5/IgG4 was preincubated with a competition peptide for 30 minutes. Then human LAG-3 extracellular domain (ECD) fused to mouse Fc (hLAG3-mFc) was added (the final peptide concentration was 600-fold that of hLAG3-mFc) and the mixture was incubated for 60 minutes before being added to an ELISA plate coated with anti-human IgG. The incubation was carried out at 4° C. overnight. After washing, the hLAG3-mFc bound to the immobilized B5/IgG4 on the ELISA plate was detected by adding anti-mouse IgG conjugated to horseradish peroxidase (HRP) and incubating for 60 minutes. Then, after washing, the ELISA was developed using One-step Detection Solution and measured as the absorbance at 450 nm.
(§2) Anti-human IgG in carbonate coating buffer was coated on an ELISA plate at 4° C. (50 μL/well at 1 μg/mL) overnight. In each well of a separate plate, a chimeric version of a given anti-LAG-3 mAb (50 μL/well at 1.4 nM) and a competition peptide (50 μL/well at various concentrations as indicated in the figures) were mixed and incubated for 30 minutes at room temperature. Then human LAG-3 extracellular domain (ECD) fused to mouse Fc (hLAG3-mFc) was added to each well (50 μL/well at 2 nM) and the final mixture was incubated at room temperature for 60 minutes before added to the ELISA plate (50 μL/well) for another 60-minute incubation. The final incubation after adding the mixture to the ELISA plate was also performed at 4° C. overnight in some assays. The plate was washed and the binding of hLAG3-mFc to the immobilized anti-LAG-3 mAb was detected by adding anti-mouse IgG conjugated to horseradish peroxidase ([…]) (ThermoFisher Scientific, Cat#: A16084; Waltham, Mass.) and incubating for 60 minutes.

Row | Binder | binding result
10 | SGPPAAAPGHPLAP (also called peptide S14) [S14] | binds
11 | DSGPPAAAPGHPLAP (also called peptide D15) [D15] | binds
12 | PDSGPPAAAPGHPLAP (also called peptide P16) [P16] | binds
13 | QPDSGPPAAAPGHPLAP (also called peptide Q17) [Q17] | binds
14 | QPDSGPPAAAPGHPLA (also called peptide Q16) [Q16] | binds
15 | PPAAAPGHPLA (also called peptide 2-12) [2-12] | binds

What follows are binders tested against T3, B12 (human IgG1 heavy chain and kappa light chain chimeric) (assay: ELISA peptide competition: peptide preincubated with chimeric IgG1 B12, competitor hLAG3-mFc; peptide at 600-fold hLAG3-mFc; capture on anti-human IgG, anti-mouse IgG-HRP).
T3 construct: Chimeric: mouse VH and VL with human IgG1 heavy chain and kappa light chain constant regions
T3 sequence (VH, as listed by the source): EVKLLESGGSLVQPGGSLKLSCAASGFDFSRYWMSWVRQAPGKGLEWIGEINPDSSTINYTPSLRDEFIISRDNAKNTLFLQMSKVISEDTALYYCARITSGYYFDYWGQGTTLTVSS
Method: as §1, §2

Row | Binder | binding result
16 | GPPAAAPGHPLAPGPHPAA (also called peptide 1-19) [1-19] | binds
17 | SGPPAAAPGHPLAP (also called peptide S14) [S14] | binds
18 | DSGPPAAAPGHPLAP (also called peptide D15) [D15] | binds
19 | PDSGPPAAAPGHPLAP (also called peptide P16) [P16] | binds
20 | QPDSGPPAAAPGHPLAP (also called peptide Q17) [Q17] | binds
21 | QPDSGPPAAAPGHPLA (also called peptide Q16) [Q16] | binds

The binders below were run against T4, B7/IgG4 (assay: ELISA peptide competition: peptide preincubated with B7/IgG4, competitor hLAG3-mFc; peptide at 600-fold hLAG3-mFc; final incubation 60 min at room temperature; anti-mouse IgG-HRP).
T4 construct: Chimeric: mouse VH and VL with human IgG4 heavy chain and kappa light chain constant regions; also called B7 (human IgG4 heavy chain and kappa light chain chimeric)
Method: B5/IgG4 was preincubated with a competition peptide for 30 minutes. Then human LAG-3 extracellular domain (ECD) fused to mouse Fc (hLAG3-mFc) was added (the final peptide concentration was 600-fold that of hLAG3-mFc) and the mixture was incubated for 60 minutes before being added to an ELISA plate coated with anti-human IgG. The incubation was carried out at 4° C. overnight. After washing, the hLAG3-mFc bound to the immobilized B5/IgG4 on the ELISA plate was detected by adding anti-mouse IgG conjugated to horseradish peroxidase (HRP) and incubating for 60 minutes. Then, after washing, the ELISA was developed using One-step Detection Solution and measured as the absorbance at 450 nm.
The assay condition is the same as in FIG. 5A except that the final incubation of the mAb, the competition peptide, and hLAG3-mFc on the ELISA plate was performed at room temperature for 60 minutes instead of incubation at 4° C. overnight.
Anti-human IgG in carbonate coating buffer was coated on an ELISA plate at 4° C. (50 μL/well at 1 μg/mL) overnight. In each well of a separate plate, a chimeric version of a given anti-LAG-3 mAb (50 μL/well at 1.4 nM) and a competition peptide (50 μL/well at various concentrations as indicated in the figures) were mixed and incubated for 30 minutes at room temperature. Then human LAG-3 extracellular domain (ECD) fused to mouse Fc (hLAG3-mFc) was added to each well (50 μL/well at 2 nM) and the final mixture was incubated at room temperature for 60 minutes before added to the ELISA plate (50 μL/well) for another 60-minute incubation.

Row | Binder | binding result
22 | PHPAAPSSWGPRPRR (also called peptide 15-29) [15-29] | binds
23 | PHPAAPSSWGPRPR (also called peptide 15-28) [15-28] | binds
24 | PHPAAPSSWGPRP (also called peptide 15-27) [15-27] | binds
